From patent publication US20040018198A1 (Amgen, published 2004)
Positions count from the first letter of the chain named.

B1: AB-MN-21.17.1 (antibody, human IgG1, V domains shown)
VH: QVQLQESGPGLVKPSETLSLTCTVSGGSISSYYWSWIRQPAGKGLEWIGRIYTSGSTNYNPSLKSRVTMSVDTSKNQFSLKLSSVTAADTAVYYCARDGQWLEDYGMDVWGQGTTVTV
VL: EIVLTQSPGTLSLSPGERATLSCWASQSVFSNYLAWYQQKPGQAPRLLIYGASSRATGIPDRFSGSGSGTDFPLTISRLEPEDFAVYYCQQYGSSPLTFGGGTKVEIK
notes: also called 21.17.1 I; AX014H21-17-1
B2: AB-MN-21.6.1 (antibody, human IgG1, V domains shown)
VH: QVQLQESGPGLVKPSQTLSLTCTVSGGSISSGGYYWSWIRQHPGKGLEWIGYIYYSGSTYYNPSLKSRVTISVDTSKNQFSLKLSSVTAADTAVYYCARAGKYYGSGSYLDYWGQGTLVTVSS
VL: not shown
notes: also called AX014H21-6-1
B3: AB-MN-21.5.2 (antibody, V domains shown)
VH: B2 VH with Q5E, E6Q, Y34R, V73I, K102T
VL: not shown
notes: also called 21.5.2 n; AX014H21-5-2
B4: AB-MN-XG1-023 (antibody, human IgG1, V domains shown)
VH: QVQLQESGPGLVKPSQTLSLTCTVSGGSISSGGYYWSWIRQHPGKGLEWIGYIYYSGSTYYNPSLKSRVTISVDTSKNQFSLKLSSVTAADTAVYYCARENYDILTGFNWFDPWGQGTLVTVSS
VL: DIQMTQSPSSVSASVGDRVTITCRASQGISSWLAWYQQKPGKAPKVLIYSTSRLQSGVPSRFSGSGSGTDFTLTISSLQPEDFATYYCQQADSFRTFGQGTKVEIK
notes: also called MN23; AB-MN-XG1-23
B5: AB-MN-22.8.1 (antibody, human IgG2, V domains shown)
VH: SGPGLVKPSETLSLTCTVSGGSISSYYWSWIRQPPGKGLEWIGYIYYSGSTNYNPSLKSRVTISVDTSKNQFSLKLTSVTAADTAVYYCARDQHSSSVYYYYYGMDVWGQGTTVTVSS
VL: ETQLTQSPGTLSLSPGERATLSCRASQSIYINYLAWYQQKPGQAPRLLISGASSRATGIPDRFSGSGSGTDFTLTISRLEPEDFAVYYCQQYGRSLTFGGGTEVEIKR
notes: also called AX014H22-8-1
B6: AB-MN-21.2.1 (antibody, human IgG1, V domains shown)
VH: QVQLQESGPGLVKPSQTLSLTCTVSGGSISSGGYYWNWIRQHPGKGLEWIGYIYYSGSTYYNPSLKSRVTISVDTSKNQFSLKLSSVTAADTAVYYCARTYYDILTGYPDAFDIWGQGTMVTVSS
VL: DIQMTQSPSSLSASVGDRVTITCRASQDIRNDLGWYQQKPGKAPKRLICAASSLQSGVPSSFSGSGSGTEFTLTISSLQPEDFATYYCLQHNSYPWTFGQGTKVEIK
notes: also called AX014H21-2-1
B7: AB-MN-22.28.1 (antibody, human IgG2, V domains shown)
VH: QVQLEQSGGGLVQPGGSLRLSCAASGFTFSSYAMSWVRQAPGKGLEWVSAISGSGGGTYYADSVKGRFTISRDNSKNTLYLQMNSLRAEDTAVYYCASGRYYYYYDMDVWGQGTTVTVSS
VL: B6 VL with Q3R, M4L, D28G, C49Y, S61R, W96L, Q100G
notes: the numbering there is inconsistent; also called AX014H22-28-1
B8: AB-MN-22.14 (antibody, human IgG2, V domains shown)
VH: QVQLQESGPGLVKPSETLSLTCTVSGGSVISGGYYWSWIRQPPGKGLEWIGYIYYSGSSNYNPSLKSRVTISVDASKNQFSLRLSSVTAADTAVYYCARSMVRGVSFDYWGQGTLVTVSS
VL: B6 VL with D28G, C49Y, S61R, W96L, Q100G
notes: also called AX014H22-14
B9: AB-MN-22.18 (antibody, human IgG2, V domains shown)
VH: B6 VH
VL: B6 VL
notes: also called AX014H22-18
B10: AB-MN-22.25 (antibody, human IgG2, V domains shown)
VH: QLQLQESGPGLVKPSETLSLTCTVSDGSISSSSYYWGWIRQPPGKGLEWIGSIYYSGSTYYNPSLKSRVTISVDTSKNQFSLKLSSVTAADTAVYYCARHGSFFDYWGQGTLVTVSS
VL: B6 VL with D28G, C49Y, S61R, A84T, H91Y, N92K
notes: also called AX014H22-25
B11: AB-MN-22.30 (antibody, human IgG2, V domains shown)
VH: QVQLVESGGGVVQPGRSLRLSCAASGFTFSSYAMHWVRQAPGKGLEWVAVIWYDGSTKYYADSVKGRFTISRDNSKNTLYLQMNSLRAEDTAVYYCARDRGLLWFGELSPHYGMDVWGQGTTVTVSS
VL: B6 VL with D28G, C49Y, S61R, E70D, N92Y, W96L, Q100G
notes: also called AX014H22-30
B12: AB-MN-22.20 (antibody, human IgG2, V domains shown)
VH: B6 VH with Y34S, N37T, S58N
VL: B6 VL with D28G, C49Y, S61R, A84T, H91Y, N92K
notes: also called AX014H22-20
B13: AB-MN-XG1-080 (antibody, human IgG1, V domains shown)
VH: QVQLQESGPGLVKPSETLSLTCTVSGGSISSYYWSWIRQPPGKGLEWIGYIYYSGSTNYNPSLKSRVTISVDTSKNQFSLKLSSVTAADTAVYYCARDTRTIFGVVSGMDVWGQGTTVTVSS
VL: EIVLTQSPGTLSLSPGERATLSCRASQSVYSSYLAWYQQKPGQAPRLLIYGASSRAPGIPDRFSGSGSGTDFTLTISRLEPEDFAVYYCQHYGRSLTFGGGTKVEIK
notes: also called MN80
B14: AB-MN-22.19 (antibody, human IgG2, V domains shown)
VH: QVQLQESGPGLVKPSETLSLTCTVSGGSISFYYWNWIRQPAGKGLEWVGRIYTSGSTNYNPSLKSRVTMSVDTSKNQFSLKLSSVTAADTAVYYCARGGFLEWDYYYGMDVWGQGTTVTVSS
VL: B13 VL with Y30S, S31V, S32T, P57T, H91Q, R94S, L96V
notes: also called AX014H22-19
B15: AB-MN-XG1-141 (antibody, human IgG1, V domains shown)
VH: B13 VH with T23S, K75N, Q77H
VL: B13 VL with A25T, S28T, S32T, P57T, Y87F
notes: also called MN141
B16: AB-MN-22.13.1 (antibody, human IgG2, V domains shown)
VH: RVQLVESGGGLVQPGGSLRLSCAASGFTFSRYSMNWVRQAPGKGLEWVSYISSSSSTIYYADSVKGRFTISRDSAKNSLYLQMNSLRDEDTAVYYCARSLRSGGMDVWGQGTTVTVSS
VL: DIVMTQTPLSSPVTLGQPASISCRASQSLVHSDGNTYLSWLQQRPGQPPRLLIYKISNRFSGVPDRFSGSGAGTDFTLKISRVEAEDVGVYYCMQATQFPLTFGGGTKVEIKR
notes: also called AX014H22-13-1
B17: AB-MN-22.15 (antibody, human IgG2, V domains shown)
VH: QVQLQESGPGLVKPSQTLSLTCTVSGGSISSGGYYWSWIRQHPGKGLEWIGYIYYSGYTYYNPSLKSRVTISVDTSKNQFSLKLSSVTAADTAVYYCARDRYYDILTGYYNYGMDVWGQGTTVTVSS
VL: not shown
notes: also called AX014H22-15
B18: AB-MN-21.1.1 (antibody, human IgG1, V domains shown)
VH: QVQLQESGPGLVKPSETLSLTCTVSGGSISSYYWSWIRQPPGKGLEWIGYIYYSGSTNYNPSLKSRVTISVDTSKNQFSLKLSSVTAADTAVYYCARRGYDILTGYDYFDYWGQGTLVTVSS
VL: DIQMTQSPSSVSASVGDRVTITCRASQGISIWLTWYQQKPGKAPKLLIYAASSLQSGVPSRFSGSGSGTDFTLTISSLQPEDFATYYCQQANSFPITFGQGTRLEIK
notes: also called 21.1.1 a; AX014H21-1-1
B19: AB-MN-22.17 (antibody, human IgG2, V domains shown)
VH: B18 VH
VL: B18 VL
notes: also called AX014H22-17
B20: AB-MN-22.29 (antibody, human IgG2, V domains shown)
VH: QVQLQESGPGLVKPSETLSLTCTVSGGSISSYYWSWIRQPAGKGLEWIGRIYTSGSTNYNPSLKSRVTMSVDTSKNQFSLKLSSVTAADTAVYYCARDGQWLEDYGMDVWGQGTTVTVSS
VL: B18 VL with I31S, T34A, Y36F
notes: also called AX014H22-29
B21: AB-MN-22.12 (antibody, human IgG2, V domains shown)
VH: QVQLQESGPGLVKPSETLSLTCTVSGGSISSYYWSWIRQPPGKGLEWIGYIYSSGSTNYNPSLKSRVTISVDTSKNQFSLKLSSVTAADTAVYYCARDQHSSSFYYYYYGMDVWGQGTTVTVSS
VL: B18 VL with I31S, T34A, I96L, Q100P, R103K, L104V, E105D
notes: also called AX014H22-12
B22: AB-MN-21.14.1 (antibody, human IgG1, V domains shown)
VH: B18 VH with I102F
VL: B18 VL with I31S, T34A, Y36F
notes: also called 21.14.1 j; AX014H21-14-1
B23: AB-MN-22.7 (antibody, human IgG2, V domains shown)
VH: QVQLVESGGGVVQPGRSLRLSCAASGFTFSSYGMHWVRQAPGKGLEWVAVISYDGSNKYYADSVKGRFTFSRDNSKNTLYLQMNSLRAEDTAVYYCARRGITMVRGAPSYYGMDVWGQGTTVTVSS
VL: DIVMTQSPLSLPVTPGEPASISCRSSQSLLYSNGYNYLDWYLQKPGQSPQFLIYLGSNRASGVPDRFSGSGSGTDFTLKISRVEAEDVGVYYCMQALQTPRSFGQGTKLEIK
notes: also called AX014H22-7
B24: AB-MN-XG1-051 (antibody, human IgG1, V domains shown)
VH: EVQLVEFGGGLVKPGGSLRLSCAASGFTFSSFRMNWVRQAPGEGLEWVSSITSSSSYIYYADSVKGRFTISRDNAKNSLYLQMNSLRAEDTAVYYCARFTAMALDYWGQGTLVTVSS
VL: DIQMTQSPSSLSASVGDRVTITCRASQGIFNYLAWYQQKPGKVPKLLIYAASTLQSGVPSRFSGSGSGTDFTLTISSLQPEDVAVYYCLKYNSAPWTFGQGTKVEIK
notes: also called MN51; AB-MN-XG1-51
B25: AB-MN-21.10.1 (antibody, human IgG1, V domains shown)
VH: QLEQSGPGLVKPSETLSLTCTVSDGSISSSSYYWGWIRQPPGKGLEWIGSIYYSGSTYYNPSLKSRVTISVDTSKNQFSLKLSSVTAADTAVYYCARHGSFFDYWGQGTLVTVSS
VL: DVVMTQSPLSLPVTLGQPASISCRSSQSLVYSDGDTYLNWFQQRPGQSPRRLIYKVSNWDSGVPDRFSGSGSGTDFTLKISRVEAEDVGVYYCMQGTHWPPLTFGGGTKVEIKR
notes: also called 21.10.1 g; AX014H21-10-1

Each binder was assayed against CA IX catalytic domain protein (CA9-CD) (human, UniProt Q16790 138-391) (assay: ELISA on CA9-CD (catalytic domain)).

| Binder | OD [OD] |
| --- | --- |
| B1 | 2.66 |
| B2 | 2.25 |
| B3 | 2.43 |
| B4 | 2.42 |
| B5 | 2.77 |
| B6 | 2.48 |
| B7 | 2.54 |
| B8 | 2.03 |
| B9 | 2.75 |
| B10 | 2.48 |
| B11 | 2.46 |
| B12 | 2.71 |
| B13 | 2.85 |
| B14 | 3.01 |
| B15 | 2.56 |
| B16 | 0.118 |
| B17 | 2.53 |
| B18 | 2.5 |
| B19 | 2.57 |
| B20 | 2.52 |
| B21 | 2.58 |
| B22 | 2.47 |
| B23 | 0.715 |
| B24 | 2.88 |

What follows are binders tested against CA-IX-His-ECD (his-V5 tagged version of the CA IX protein, extracellular domain) (human, UniProt Q16790 38-414) (assay: ELISA on CA-IX-His-ECD).

| Binder | OD [OD] |
| --- | --- |
| B1 | 1.85 |
| B2 | 0.618 |
| B3 | 0.893 |
| B4 | 2.22 |
| B5 | 2.41 |
| B6 | 1.21 |
| B7 | 0.404 |
| B8 | 0.763 |
| B9 | 2.23 |
| B10 | 1.84 |
| B11 | 2.2 |
| B12 | 1.72 |
| B13 | 2.71 |
| B14 | 2.12 |
| B15 | 2.56 |
| B16 | 1.85 |
| B17 | 0.831 |
| B25 | 0.059 |
| B18 | 1.64 |
| B19 | 2.16 |
| B20 | 1.96 |
| B21 | 2.38 |
| B22 | 1.78 |
| B23 | 0.097 |
| B24 | 2.47 |
